Experimental data published in the supplement of paper PMC9170038.

System: MS2 coat protein
Assay: apparent KD of MS2 coat protein; designed switch direction (-1 OFF switch, 1 ON switch): -1; higher = weaker reporter binding
Outline: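 The apparent KD reported per design is the median over clusters of curve fits to normalised cluster fluorescence. The RNA switches were transcribed on Illumina chips by stalled E. coli RNA polymerase. SNAP-549-labelled MS2 coat protein was titrated from 0.7 or 1.5 nM, doubling up to 3 µM, in Tris-HCl pH 7.5 buffer containing KCl, MgCl2, BSA, DTT, tRNA and Tween-20, with no input, 200 uM small-molecule ligand, or an oligonucleotide input.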

[1] = input ligand: microRNA oligo, concentration not stated
[2] = Eterna round: R95, input ligand: FMN 200 uM
[3] = Eterna round: R95, input ligand: microRNA oligo, concentration not stated
[4] = Eterna round: R95, input ligand: none

Row | Sequence | apparent KD of MS2 coat protein (input ligand: FMN 200 uM) | apparent KD of MS2 coat protein (input ligand: none) | apparent KD of MS2 coat protein [1] | apparent KD of MS2 coat protein [2] | apparent KD of MS2 coat protein [3] | apparent KD of MS2 coat protein [4]
1 | UAUUAGUGAGGAUAUGAGUCGUAGAACAAUAGUACUACGUCUCAGAAGGCACAUGAGGAUCACCCAUGUUCCUU [Mod of Fisker - Jieux - Exclusion 4] (Eterna round: R97, puzzle: Exclusion 4) | 71.3 nM | 16.1 nM | – | – | – | –
2 | CAGUUUUGAGUGAGGAUAUGUGAUCCAAAGGGUCAACAGAAGGCACAUGAGGAUCACCCAUGUAAUCCAAUUGG [Eternabot (L2) Solution 37] (Eterna round: R97, puzzle: Brourd's mod of Exclusion 4) | 1520 nM | 3760 nM | – | – | – | –
3 | GGUUGGCGAGGAUAUACAUGAGGAUCACCCAUGUGAGAGAAAAAAGUGAGCAAGAAAAGUAGAAGGCGCUGACG [salish99_ex3_r3_030] (Eterna round: R96, puzzle: Exclusion 3) | 209 nM | 59.9 nM | 110 nM | – | – | –
4 | GGAUAGUGAGGAUAUACCCAGAUUGAUGGACACGUCAGCGGGUAGAAGGCACAUGAGGAUCACCCAUGUGGCCU [Eternabot (L1) Solution 22] (Eterna round: R97, puzzle: Exclusion 4) | 18.4 nM | 14.1 nM | – | – | – | –
5 | AAUAAUAAAGUGAGGAUAUCUAGAGCCUCGGCUCUAGAGAAGGCACAUGAGGAUCACCCAUGUCUCAAUAAUAA [BmEx4/1-C5] (Eterna round: R97, puzzle: Brourd's mod of Exclusion 4) | 60.5 nM | 21.3 nM | – | – | – | –
6 | ACGAUGACUGAAAGAAGUCAAAAGACAUGAGGAUCACCCAUGUAGGAUAUGGCUACGAAAAGUAGUCAGAAGGACAAGUCAUCA [Omei Exc(NG) 3 Av4] (Eterna round: R96, puzzle: Exclusion NG 3) | 10.1 nM | 14.1 nM | 9.69 nM | – | – | –
7 | AAAAGAACAGGAUAUUCGGGAAAUAACAUGAGGAUCACCCAUGUUAACGCGGGUGAGAACGAAGAAGGGUUCUAAA [Atusceon] (puzzle: Exclusion 5) | – | – | – | 114 nM | 96.4 nM | 93.1 nM
8 | ACAAGCUAAGUGCUCGGUCCGGGAGACACGUGAUCAGCGACAUGAGGAUCACCCAUGUAAUAGGAGCUUAAAACGUU [solution 46] (Eterna round: R96, puzzle: Sensor v2, turn-off variant 2) | 15 nM | 19.7 nM | 20.1 nM | – | – | –
9 | CCAAGUCCAUAGGAUAUCGACCAGUCCUCUGGAUGAGAAGGAUGAACUUGAGGAUCACCCAAGUGGCCUAAUAC [Eddilesove] (Eterna round: R97, puzzle: Exclusion 6) | 50.1 nM | 23.9 nM | – | – | – | –
10 | GGCACACAUGUAGGAUAUCUGCACGUGUAGUGCAGAGAAGGACAUGAGGAUCACCCAUGUAAUUAAGAUCAAUUAUUAAGUGCC [ENG1/3-A3] (Eterna round: R96, puzzle: Exclusion NG 1) | 481 nM | 58.9 nM | 48.6 nM | – | – | –
11 | GACGUGUGAGGAUAUCCGAUGCCGGUCCGGAAGGUUCGGGUGGAGAAGGCACAUGAGGAUCACCCAUGUGUAAG [Excls4-VII] (puzzle: Exclusion 4) | – | – | – | – | 16.4 nM | –
12 | AUGUGGGUAUGAAGGUGUAGAUAGAGCGUACGUUAUGGAACAUGAGGAUCACCCAUGUAGCUUUUUGCUCGUCUUAU [JR_SV3TOV2_Sub034] (puzzle: Sensor v3, turn-off variant 2) | – | – | – | 36.8 nM | 40.9 nM | 40.4 nM
13 | CCGCAACAUGAGGAUCACCCAUGUCAGGAUAUCGUACGUUCGUCGAAAGACGAUCGUACGAGAAGGGUGUGCGG [Eli x1 4.36] (Eterna round: R97, puzzle: Exclusion 1) | 79.8 nM | 110 nM | – | – | – | –
14 | AAAUUAGCAAGUAGAUCCGACAUGAGGAUCACCCAUGUUAUCUGAAAGAACGCAGCAUAAUUGUGAGCUCGUCUAAA [Sensor-V1 #4] (Eterna round: R97, puzzle: Sensor, turn-off variant 1) | 93.7 nM | 91.5 nM | – | – | – | –
15 | CUAGCGAAUGUAGGAUAUCGGACUGUUUCAGUCUGAGAAGGACAUGAGGAUCACCCAUGUAUAGCUACGUGAGUAGCUCGCUAG [JL ENG1 3.91] (Eterna round: R96, puzzle: Exclusion NG 1) | 43.6 nM | 17.1 nM | 13 nM | – | – | –
16 | GUUGUUUAUGUAGGAUAUGCCUGGCGUGCCUUCGCAGAAGGACAUGAGGAUCACCCAUGUAUUGCGGUCUGCGUUCAGAUCGCU [salish99_ExNG1_r4_023] (Eterna round: R96, puzzle: Exclusion NG 1) | 49.8 nM | 52.7 nM | 38.8 nM | – | – | –
17 | UUAUACGCUGAGGAUAUUAUCACUGAGAGGUGAUGAGAAGGCGGUACAUGAGGAUCACCCAUGUCUAUGGGCAG [Ex-6 Malc#22] (puzzle: Exclusion 6) | – | – | – | – | 237 nM | –

Row | Sequence | apparent KD of MS2 coat protein (input ligand: FMN 200 uM) | apparent KD of MS2 coat protein (input ligand: none) | apparent KD of MS2 coat protein [1] | apparent KD of MS2 coat protein [2] | apparent KD of MS2 coat protein [3] | apparent KD of MS2 coat protein [4]
18 | UUUAACAAGCCAGAUCCUCACAUGAGGAUCACCCAUGUGCUCGUCUGAUUUUGUACUAUCAUGUGAGUGAUAGUGUU [Level Boss var2-06] (Eterna round: R96, puzzle: Sensor v3, turn-off variant 1) | 200 nM | 205 nM | 56.9 nM | – | – | –
19 | GGAAAAAUAUAGGAUAUGGGAGGGAGGACCGAACCAGAAGGAUAGACAUGAGGAUCACCCAUGUAAAGAUCCUC [AK-MS2ROC-r4-exclusion6-6] (Eterna round: R97, puzzle: Exclusion 6) | 377 nM | 204 nM | – | – | – | –
20 | UAUGUUGUUGUGAGGAUAUACUUAGUUUGACCGUAGUAGAAGGCACAUGAGGAUCACCCAUGUAGAUUUUUGGU [JR_BME4_Sub007] (puzzle: Brourd's mod of Exclusion 4) | – | – | – | – | 9.49 nM | –
21 | CACCGUUAUAUAGGAUAUGUUACAUGAGGAUCACCCAUGUAAUAAAUGAGAAUUUCGAAUGUAAUACAGAAGGAUAGAAUCGGC [Ostracism 72 - Jieux - Exclusion NG 2] (Eterna round: R96, puzzle: Exclusion NG 2) | 27.2 nM | 22.9 nM | 18.1 nM | – | – | –
22 | CAUGGAACAUAGGAUAUCUCGCGGCUAGGCUGCAGAGAAGGAUGUACAUGAGGAUCACCCAUGUAUGAUCCAAU [Ataratin] (puzzle: Exclusion 6) | – | – | – | – | 16.3 nM | –
23 | GUAAAGUGAGGAUAUGGUAAUUUAAUUAUUAAUUAAUUAAUCCAGAAGGCACAUGAGGAUCACCCAUGUAAAUG [Mat - Exclusion 4 - D90] (puzzle: Exclusion 4) | – | – | – | – | 31.6 nM | –
24 | CACCAGCGAGGAUAUACACGUGGUCUCCACUCCCGGUGGUAACAUGAGGAUCACCCAUGUAGAAGGCGCAACAU [Gecedi] (puzzle: Exclusion 2) | – | – | – | – | 44.8 nM | –
25 | CUGGUCCGAGGAUAUAUUAUGUGAUACAUGAGGAUCACCCAUGUUAUAUGAUGGAUGUUAGUAGAAGGCGGACUAG [JL-ex5-3.21] (puzzle: Exclusion 5) | – | – | – | 102 nM | 57.3 nM | 59.9 nM
26 | AGUAACAGAGGAUAUACUGUUUUAUGUGUUUAUUGUUUUGAACAUGAGGAUCACCCAUGUAGAAGGCUGAAUAA [JMF 94] (puzzle: Exclusion 2) | – | – | – | – | 21.7 nM | –
27 | AAAACAAAAGGAUAUACAUGAGGAUCACCCAUGUGGCAUAAAAUCGCCGCUAAACCAUGUAGAAGGUUUGCGAA [EX3 A.6] (Eterna round: R97, puzzle: Exclusion 3) | 25.5 nM | 19.6 nM | – | – | – | –
28 | UAUUUACAUGAGGAUCACCCAUGUCAGGAUAUGCGUCGAUCGUCGAAAGACGAUAGCCGCAGAAGGGACAAUAU [LRO-Excl01-20 mod derived from EliFisker 4.24] (Eterna round: R97, puzzle: Exclusion 1) | 246 nM | 83.1 nM | – | – | – | –
29 | GAGGUCGCAGGAUAUAGUACAUAGAACAUGAGGAUCACCCAUGUAGCGGGAGGUUCUAUAUUAGAAGGGUGAAGUC [Eternabot (L2) Solution 97] (Eterna round: R97, puzzle: Exclusion 5) | 572 nM | 494 nM | – | – | – | –
30 | AAAUCAGAGGAGGAUAUGGUAUAGGAAAUGGUGCCAGAAGGUUUCACAUGAGGAUCACCCAUGUCAAAUAGUGA [EX6 #62] (Eterna round: R97, puzzle: Exclusion 6) | 49.2 nM | 60.4 nM | – | – | – | –
31 | CUGGGUCGUGUUAGGAUAUGCUCUAGAAAGUUAGGGUAGAAGGAACAUGAGGAUCACCCAUGUGACUUCACUAG [BmEX4 B.27] (Eterna round: R97, puzzle: Brourd's mod of Exclusion 4) | 23.6 nM | 15.4 nM | – | – | – | –
32 | AUGGGUCCUCACGGAGCUACAUGAGGAUCACCCAUGUGUAUUGAGGAUAUCCACUGCCGAGGGCUGGAGAAGGCAGUGUACUGU [Ex NG3 #92] (Eterna round: R96, puzzle: Exclusion NG 3) | 124 nM | 108 nM | 89.3 nM | – | – | –
33 | UACAUGAGGAUCACCCAUGUUUUGUCGUGUAUGGUAUUUAUCUAGGAUAUCAUAUUAUUUAGUUAUGAGAAGGAGAAUAUUAAU [JMF's solution 80] (Eterna round: R96, puzzle: Exclusion NG 3) | 24.9 nM | 19.3 nM | 12.7 nM | – | – | –
34 | AAGAAACAUGAGGAUCACCCAUGUGAGGAUAUGAAAAAGAAAAGAAAAGAAAGAAGAAUCAGAAGGCACAAAGC [salish99-ex1_r3_090] (puzzle: Exclusion 1) | – | – | – | 22.5 nM | 28.6 nM | 32.1 nM
